Reference: patent US20150203575A1 (Genentech, published 2015)

Columns and labels:
BR3 expressed on cells [1] = target: T1, BR3 expressed on cells (human, UniProt Q96RJ3 1-184); assay: flow cytometry, transfected 293T cells, 50 µg/ml
T1 construct: Clone of the Origene human cDNA library
T1 sequence: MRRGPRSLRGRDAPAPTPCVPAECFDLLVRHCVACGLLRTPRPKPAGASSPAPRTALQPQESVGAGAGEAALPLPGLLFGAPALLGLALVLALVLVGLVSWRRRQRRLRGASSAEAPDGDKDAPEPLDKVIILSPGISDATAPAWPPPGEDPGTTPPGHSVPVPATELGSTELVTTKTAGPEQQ

PSS8 expressed on cells [2] = target: T2, PSS8 expressed on cells (human, UniProt Q16651 30-343); assay: flow cytometry, transfected 293T cells, 50 µg/ml
T2 construct: Clone of the Origene human cDNA library; also called Protease serine 8; prostasin
T2 sequence (Q16651 30-343 limits assumed): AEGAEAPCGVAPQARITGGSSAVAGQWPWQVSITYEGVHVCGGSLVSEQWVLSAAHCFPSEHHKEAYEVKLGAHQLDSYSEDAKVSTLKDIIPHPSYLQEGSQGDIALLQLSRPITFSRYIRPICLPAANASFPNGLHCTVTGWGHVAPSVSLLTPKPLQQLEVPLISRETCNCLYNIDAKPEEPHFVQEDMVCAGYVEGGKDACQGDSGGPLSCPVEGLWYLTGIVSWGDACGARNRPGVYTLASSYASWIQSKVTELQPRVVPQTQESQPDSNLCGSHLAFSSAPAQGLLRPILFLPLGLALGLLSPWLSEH

[3] = target: T3, IL-2Ra expressed on cells (human, UniProt P01589 22-272); assay: flow cytometry, transfected 293T cells, 50 µg/ml
T3 construct: Clone of the Origene human cDNA library; also called Interleukin 2 receptor alpha
T3 sequence: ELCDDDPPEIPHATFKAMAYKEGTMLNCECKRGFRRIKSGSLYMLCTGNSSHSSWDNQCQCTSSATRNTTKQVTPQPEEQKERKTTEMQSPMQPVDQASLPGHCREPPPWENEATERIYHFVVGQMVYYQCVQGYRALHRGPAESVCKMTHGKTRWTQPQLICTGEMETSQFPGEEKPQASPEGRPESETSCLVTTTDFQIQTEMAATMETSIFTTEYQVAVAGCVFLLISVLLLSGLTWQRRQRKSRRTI

[4] = target: T4, mouse CD99 expressed on 293T cells (mouse, UniProt Q8VCN6 29-175, sialylated O-glycans at Thr-45 and Thr-50 (cited as relevant for PILRα recognition)); assay: flow cytometry, transfected 293T cells, 50 µg/ml; 293T-Neo: 1.5
T4 construct: whole, on cells; also called mCD99; mCD99 transfectants
T4 sequence (looked up): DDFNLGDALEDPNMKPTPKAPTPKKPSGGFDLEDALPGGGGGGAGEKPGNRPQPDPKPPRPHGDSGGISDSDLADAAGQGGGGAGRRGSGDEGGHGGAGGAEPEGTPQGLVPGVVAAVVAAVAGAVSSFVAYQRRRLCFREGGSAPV

[5] = target: T5, human COLEC12 expressed on cells (human, UniProt Q5KU26 1-742); assay: as above
T5 construct: also called hCOLEC12; C-terminal his tagged hCOLEC12
T5 sequence (Q5KU26 whole entry S522P/G606S): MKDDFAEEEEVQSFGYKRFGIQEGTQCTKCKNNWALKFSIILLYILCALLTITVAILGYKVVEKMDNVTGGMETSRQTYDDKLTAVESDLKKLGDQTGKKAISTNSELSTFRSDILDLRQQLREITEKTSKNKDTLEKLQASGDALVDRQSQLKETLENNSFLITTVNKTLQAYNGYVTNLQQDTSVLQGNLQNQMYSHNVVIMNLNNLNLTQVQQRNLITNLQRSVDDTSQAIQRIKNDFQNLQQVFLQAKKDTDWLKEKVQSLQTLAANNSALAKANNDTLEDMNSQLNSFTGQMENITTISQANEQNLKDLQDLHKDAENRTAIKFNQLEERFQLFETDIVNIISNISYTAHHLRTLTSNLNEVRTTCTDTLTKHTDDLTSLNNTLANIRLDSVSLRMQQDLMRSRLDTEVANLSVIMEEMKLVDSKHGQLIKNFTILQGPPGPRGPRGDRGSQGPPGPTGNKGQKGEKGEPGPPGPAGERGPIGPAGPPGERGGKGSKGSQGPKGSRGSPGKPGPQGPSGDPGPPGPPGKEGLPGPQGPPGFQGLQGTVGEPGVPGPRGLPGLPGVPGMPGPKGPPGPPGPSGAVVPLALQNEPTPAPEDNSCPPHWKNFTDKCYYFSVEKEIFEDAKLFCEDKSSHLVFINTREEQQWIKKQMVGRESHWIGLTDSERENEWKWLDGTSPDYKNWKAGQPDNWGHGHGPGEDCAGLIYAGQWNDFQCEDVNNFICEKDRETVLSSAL

[6] = target: T6, human NPDC1 expressed on cells (human, UniProt Q9NQX5 35-325); assay: as above
T6 construct: also called hNPDC1; hNPCD1
T6 sequence: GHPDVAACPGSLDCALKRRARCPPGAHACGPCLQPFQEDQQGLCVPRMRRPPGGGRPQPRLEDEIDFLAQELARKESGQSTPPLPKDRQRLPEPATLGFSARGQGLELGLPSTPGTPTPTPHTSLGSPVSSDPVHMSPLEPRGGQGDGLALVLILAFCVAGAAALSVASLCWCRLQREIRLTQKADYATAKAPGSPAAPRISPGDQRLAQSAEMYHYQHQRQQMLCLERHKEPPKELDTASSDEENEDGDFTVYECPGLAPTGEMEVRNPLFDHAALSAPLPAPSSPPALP

[7] = target: T6, human NPDC1 expressed on cells; assay: equilibrium competition radioligand assay: 125I-hPILRα-Fc against unlabeled hPILRα-Fc on 293T cells transiently expressing hNPDC1; average of two replicate assays
Source text: Binding to mock transfectants (grey area) represents background binding. Transfected ligand expressing cells were gated and their binding to PILRα-Fc was shown. […] Binding to mock transfectants (grey area) represents background binding. PILRα positive cells were gated and ligand fusion staining was shown.

BR3 expressed on cells [8] = target: T1, BR3 expressed on cells; assay: flow cytometry, transfected 293T cells, 2 µg/ml
PSS8 expressed on cells [9] = target: T2, PSS8 expressed on cells; assay: flow cytometry, transfected 293T cells, 2 µg/ml
[10] = target: T3, IL-2Ra expressed on cells; assay: flow cytometry, transfected 293T cells, 2 µg/ml
hCOLEC12-his = target: T7, hCOLEC12-his (human, UniProt Q5KU26 59-742, sialylated O-glycans and N-glycans); assay: SPR equilibrium binding analysis, hCOLEC12 immobilised
T7 construct: Whole entry named; also called human COLEC12-his; hCOLEC12 (SPR); not shown: his tag
T7 sequence (Q5KU26 59-742 S522P/G606S limits assumed): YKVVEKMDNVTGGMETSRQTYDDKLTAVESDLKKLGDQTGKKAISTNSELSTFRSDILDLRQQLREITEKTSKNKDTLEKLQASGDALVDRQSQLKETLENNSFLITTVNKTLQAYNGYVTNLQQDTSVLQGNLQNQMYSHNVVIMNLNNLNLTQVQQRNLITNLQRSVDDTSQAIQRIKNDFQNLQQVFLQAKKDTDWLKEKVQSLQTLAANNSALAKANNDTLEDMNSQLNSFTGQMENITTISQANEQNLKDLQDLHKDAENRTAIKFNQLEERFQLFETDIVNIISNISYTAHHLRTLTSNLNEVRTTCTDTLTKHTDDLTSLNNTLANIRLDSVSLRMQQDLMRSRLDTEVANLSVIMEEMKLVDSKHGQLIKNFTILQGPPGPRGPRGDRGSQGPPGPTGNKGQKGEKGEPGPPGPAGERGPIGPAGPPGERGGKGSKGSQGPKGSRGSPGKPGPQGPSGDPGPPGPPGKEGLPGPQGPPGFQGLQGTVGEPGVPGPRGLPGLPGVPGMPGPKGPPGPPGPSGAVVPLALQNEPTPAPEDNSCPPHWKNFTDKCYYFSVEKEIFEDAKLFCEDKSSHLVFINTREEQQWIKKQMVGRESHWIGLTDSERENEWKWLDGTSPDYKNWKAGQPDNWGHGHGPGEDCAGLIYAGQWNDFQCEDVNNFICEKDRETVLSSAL

[11] = target: T8, LRRTM4 expressed on cells (human, UniProt Q86VH4 31-590); assay: flow cytometry, transfected 293T cells, 50 µg/ml
T8 construct: Clone of the Origene human cDNA library; also called Leucine rich repeat transmembrane neuronal 4
T8 sequence (Q86VH4 31-590 limits assumed): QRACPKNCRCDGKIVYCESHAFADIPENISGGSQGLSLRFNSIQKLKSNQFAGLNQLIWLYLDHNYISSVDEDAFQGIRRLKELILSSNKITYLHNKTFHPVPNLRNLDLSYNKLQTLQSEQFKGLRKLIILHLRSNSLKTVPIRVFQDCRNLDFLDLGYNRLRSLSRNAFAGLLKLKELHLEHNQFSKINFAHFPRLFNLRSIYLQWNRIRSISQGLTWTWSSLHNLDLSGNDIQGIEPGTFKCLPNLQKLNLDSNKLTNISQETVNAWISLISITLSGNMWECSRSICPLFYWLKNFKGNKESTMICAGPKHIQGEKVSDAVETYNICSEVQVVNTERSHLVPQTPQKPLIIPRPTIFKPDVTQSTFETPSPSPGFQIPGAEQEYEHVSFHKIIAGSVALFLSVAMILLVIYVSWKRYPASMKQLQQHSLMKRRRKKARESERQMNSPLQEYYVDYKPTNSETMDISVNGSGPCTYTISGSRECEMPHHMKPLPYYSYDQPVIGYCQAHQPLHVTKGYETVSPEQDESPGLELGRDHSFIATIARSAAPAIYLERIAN

MAG expressed on cells [12] = target: T9, MAG expressed on cells (human, UniProt P20916 20-626); assay: flow cytometry, transfected 293T cells, 50 µg/ml
T9 construct: Clone of the Origene human cDNA library; also called Myelin associated glycoprotein; SIGLEC4A
T9 sequence: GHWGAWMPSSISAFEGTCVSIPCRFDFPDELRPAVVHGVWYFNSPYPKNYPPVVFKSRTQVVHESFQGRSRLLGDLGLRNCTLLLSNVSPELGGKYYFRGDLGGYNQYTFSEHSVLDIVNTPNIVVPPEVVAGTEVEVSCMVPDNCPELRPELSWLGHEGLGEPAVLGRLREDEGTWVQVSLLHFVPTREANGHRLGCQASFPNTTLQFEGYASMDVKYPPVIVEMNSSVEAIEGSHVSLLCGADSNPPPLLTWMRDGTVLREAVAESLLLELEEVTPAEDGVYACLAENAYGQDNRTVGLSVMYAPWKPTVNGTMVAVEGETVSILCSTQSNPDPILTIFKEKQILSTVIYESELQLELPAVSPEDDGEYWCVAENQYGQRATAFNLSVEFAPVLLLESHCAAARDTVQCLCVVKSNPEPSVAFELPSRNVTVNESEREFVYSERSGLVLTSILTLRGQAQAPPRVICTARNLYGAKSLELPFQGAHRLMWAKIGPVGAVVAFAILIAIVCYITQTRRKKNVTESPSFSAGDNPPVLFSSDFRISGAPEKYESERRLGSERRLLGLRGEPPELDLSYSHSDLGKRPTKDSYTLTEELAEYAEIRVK

[13] = target: T4, mouse CD99 expressed on 293T cells; assay: flow cytometry, transfected 293T cells, 2 µg/ml; 293T-Neo: 0.013
[14] = target: T5, human COLEC12 expressed on cells; assay: as above
[15] = target: T6, human NPDC1 expressed on cells; assay: as above
[16] = target: T8, LRRTM4 expressed on cells; assay: flow cytometry, transfected 293T cells, 2 µg/ml
MAG expressed on cells [17] = target: T9, MAG expressed on cells; assay: flow cytometry, transfected 293T cells, 2 µg/ml

B1: hPILRα-Fc (Fc fusion)
chain: QPSGSTGSGPSYLYGVTQPKHLSASMGGSVEIPFSFYYPWELATAPDVRISWRRGHFHRQSFYSTRPPSIHKDYVNRLFLNWTEGQKSGFLRISNLQKQDQSVYFCRVELDTRSSGRQQWQSIEGTKLSITQAVTTTTQRPSSMTTTWRLSSTTTTTGLRVTQGKRRSDSWHISLETA
notes: also called human PILRα-Fc; WT hPILRα-Fc; not shown: Fc of mouse IgG2a (PILRα-mIgG2a, called PILRα-Fc)
% cells in lower right quadrant (BR3 expressed on cells [1]): 67.3% | % cells in lower right quadrant (PSS8 expressed on cells [2]): 81% | % cells in lower right quadrant [3]: 64.4% | % cells in lower right quadrant [4]: 70.8% | % cells in lower right quadrant [5]: 42% | % cells in lower right quadrant [6]: 68.8% | Kd [7]: 49 nM | % cells in lower right quadrant (BR3 expressed on cells [8]): 31.5% | % cells in lower right quadrant (PSS8 expressed on cells [9]): 18.7% | % cells in lower right quadrant [10]: 6.39% | Kd (hCOLEC12-his): 1100 nM | % cells in lower right quadrant [11]: 46% | % cells in lower right quadrant (MAG expressed on cells [12]): 36.8% | % cells in lower right quadrant [13]: 23.4% | % cells in lower right quadrant [14]: 0.014% | % cells in lower right quadrant [15]: 27.8% | % cells in lower right quadrant [16]: 11.7% | % cells in lower right quadrant (MAG expressed on cells [17]): 2.31%
